Assay [1] has as its target human LAP-TGFβ1 overexpressed on cells (human, UniProt P01137 30-390). The experiment in a line: cell-based or functional assay.
For assay [2], the target named is T1, fusion protein of a human IgG1 Fc domain and human LAP-TGFβ1 (human, UniProt P01137 30-390).
T1 construct: printed both as Fc-huB1 and LAP-TGFβ-Fc; also called Fc-huB1; Fc-human LAP
The assay is described as follows: BLI, signal change on binding. Here is the method: Binding to human TGFβ1 of a subset of candidates was also tested by bio-layer interferometry (Octet). A streptavidin coated tip was equilibrated for 60 seconds in binding buffer (10 mM sodium phosphate, 150 mM sodium chloride, 1% bovine serum albumin, 0.05% sodium azide). The tip was then dipped in 10 μg/mL biotinylated antibody in binding buffer. After 15 seconds, the tip was washed in binding buffer for 60 seconds, and then dipped in 0-24 nM Fc-human LAP. Analyte association was measured for 5 minutes. The tip was transferred to binding buffer alone, and analyte dissociation was measured for 5 minutes. The association and dissociation data were fit to a 1:1 binding model.
For orientation: Biolayer interferometry detects binding as a change in optical thickness at a sensor tip.

The target of assay [3] is T2, fusion protein of a human IgG1 Fc domain and cynomolgus monkey LAP-TGFβ1 (human; cynomolgus monkey).
T2 construct: also called cynomolgus monkey LAP-TGFβ-Fc
The assay is described as follows: BLI, 2:1 model, component 1. How it is done: (§1) The 20E6_H0.2aL1_IgG1 antibody was biotinylated using EZ-Link SulfoNHS-LC-Biotin (ThermoFisher). A streptavidin-functionalized tip was equilibrated in binding buffer (10 mM sodium phosphate, 150 mM sodium chloride, 1% (w/v) bovine serum albumin, 0.05% (w/v) sodium azide, pH 7.4) and dipped in a 10 μg/mL solution of biotinylated anti-LAP in binding buffer for 30 seconds to load the tip with antibody. The antibody-loaded tip was then washed in binding buffer and placed in a solution containing 0-24 nM of a fusion protein having a human IgG1 Fc domain fused to either human LAP-TGFβ1, human LAP-TGFβ2 or human LAP-TGFβ3. The antigen was allowed to bind to antibody for 5 minutes (association phase), and then the tip was moved to binding buffer (dissociation phase). The association and dissociation phases were fit to a 2:1 heterogenous ligand binding model to determine the binding rate constants. As shown in FIG. 21A and Table 17, 20E6_H0.2aL1_IgG1 bound with sub-nanomolar affinity to human LAP-TGFβ1, but not to human LAP-TGFβ2 (FIG. 21B) or LAP-TGFβ3 (FIG. 21C).
(§2) The binding of 20E6_H0.2aL1_IgG1 antibody and 20E6_H0.2aL1_hIgG4mut antibody to LAP-TGFβ1 of various species was examined by bio-layer interferometry using the method described in Example 12, except that the antibody-loaded tip was placed in a solution containing 0-24 nM of a fusion protein having a human IgG1 Fc domain fused to either mouse, rat, cynomolgus monkey, or human LAP-TGFβ1.

Assay [4] addresses T1, fusion protein of a human IgG1 Fc …. The experiment in a line: BLI, 2:1 model, component 1. Here is the method:
as §1, §2

Assay [5] addresses T3, fusion protein of a human IgG1 Fc domain and mouse LAP-TGFβ1 (human; mouse, UniProt P04202 30-390).
T3 construct: also called mouse LAP-TGFβ-Fc
The assay is described as follows: BLI, 2:1 model, component 1. Here is the method: as §1, §2

For assay [6], the target named is T4, fusion protein of a human IgG1 Fc domain and rat LAP-TGFβ1 (human; rat, UniProt P17246 30-390, limits assumed).
T4 construct: also called rat LAP-TGFβ-Fc
The experiment in a line: BLI, 2:1 model, component 1. Here is the method: as §1, §2

Assay [7] deals with T1, fusion protein of a human IgG1 Fc …. The assay is described as follows: BLI, 2:1 heterogeneous ligand model, component 2. Here is the method: as §1
Assay [8] shares this target. The assay is described as follows: BLI, 2:1 model, component 1. How it is done:
A streptavidin-functionalized tip was equilibrated in binding buffer (10 mM sodium phosphate, 150 mM sodium chloride, 1% (w/v) bovine serum albumin, 0.05% (w/v) sodium azide, pH 7.4) and dipped in a 5 μg/mL solution of biotinylated antibody (i.e., 20E6_H0.2aL1_hIgG1, murine 16F4, or MHG8, a GARP-specific murine IgG2a described in Lienart et al. Science 2018; 362:952-956) in binding buffer for 30 seconds to load the tip with antibody. The antibody-loaded tip was then washed in binding buffer and placed in a solution containing 0-24 nM of a fusion protein containing a human IgG1 Fc domain fused to either human LAP-TGFβ1, the soluble GARP-LAP-TGFβ1 complex, or the soluble ECR3E-LAP-TGFβ1 complex. The antigen was allowed to bind to antibody for 5 minutes (association phase), and then the tip was moved to binding buffer (dissociation phase). The binding and dissociation data for 16F4 and MHG8 were well-fit by a 1:1 binding model. The association and dissociation phases for 20E6_H0.2aL1_hIgG1 antibody were fit to a 2:1 heterogenous ligand binding model to determine the binding rate constants.
As shown in FIG. 24 and Table 21, the 20E6_H0.2aL1_hIgG1 antibody bound to free LAP-TGFβ1 and the soluble GARP-LAP-TGFβ1 complex with nanomolar affinity, but not to the ECR3E-LAP-TGFβ1 complex. As expected, the anti-GARP antibody (MHG8) bound to the GARP-LAP-TGFβ1 complex, but not to free LAP-TGFβ1 or the ECR3E-LAP-TGFβ1 complex. 16F4 bound tightly to all three constructs.
This is another data set of the same source.

T4 sequence (P17246 30-390 limits assumed): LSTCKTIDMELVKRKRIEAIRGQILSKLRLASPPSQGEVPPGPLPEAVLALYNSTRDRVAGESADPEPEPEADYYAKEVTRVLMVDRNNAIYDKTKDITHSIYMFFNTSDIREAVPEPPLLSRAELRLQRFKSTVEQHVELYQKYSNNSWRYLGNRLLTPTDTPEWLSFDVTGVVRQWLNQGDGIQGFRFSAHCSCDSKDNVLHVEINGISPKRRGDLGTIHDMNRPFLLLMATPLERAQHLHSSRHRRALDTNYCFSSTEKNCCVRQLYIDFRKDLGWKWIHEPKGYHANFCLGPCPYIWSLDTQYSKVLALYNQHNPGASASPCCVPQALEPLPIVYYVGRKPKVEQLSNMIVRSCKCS
T1 sequence (P01137 30-390 limits assumed): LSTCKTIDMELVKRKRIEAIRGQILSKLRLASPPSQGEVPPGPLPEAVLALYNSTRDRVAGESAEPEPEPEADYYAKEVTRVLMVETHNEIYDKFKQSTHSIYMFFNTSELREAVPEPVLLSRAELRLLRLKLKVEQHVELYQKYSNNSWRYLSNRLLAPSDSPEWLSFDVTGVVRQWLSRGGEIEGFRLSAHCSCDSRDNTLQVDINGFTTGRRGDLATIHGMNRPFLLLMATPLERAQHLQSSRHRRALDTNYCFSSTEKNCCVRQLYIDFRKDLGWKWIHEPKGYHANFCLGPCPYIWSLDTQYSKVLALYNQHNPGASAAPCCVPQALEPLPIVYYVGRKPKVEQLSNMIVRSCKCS
T3 sequence (P04202 30-390 limits assumed): as the sequence (P17246 30-390 limits assumed) above, with D93E, T99S, F131L, T134S, V202K counted along it
Chain of human LAP-TGFβ1 overexpressed on cells (P01137 30-390): as the sequence (P01137 30-390 limits assumed) above

B1: 22F9_hIgG1 (antibody, V domains shown)
VH: QVQLQQPGAELVKPGASVKLSCKASGYTFTSYWMHWVKQRPGQGLEWIGMIHPNSGSTNYNEKFKSKATLTVDKSSSTAYMQLSSLTSEDSAVYYCAYYDYDGFFDVWGTGTTVTVSS
VL: DIVLTQSPASLDVSLGQRATISCRASKSVSTSGYSYMHWYQQKSGQPPKLLIYLASNLESGVPARFSGSGSGTHFTLNIHPVEEEDAATYYCQHSRELPYTFGGGTKLEIK
On to B1, for which, in assay [1], the “IC50 of inhibition of TGFβ1 activation” value was found to be 1.8 µg/mL. For the same molecule, the “Binding (nm)” value in assay [2] was determined as 0.27 nm.

B2: 20E6_H0.2aL1_hIgG1 (antibody)
heavy: not shown
light: DIQMTQSPSSLSASVGDRVTITCRASQDITNYLNWYQQKPGKAVKLLIYYTSRLHSGVPSRFSGSGSGTDYTLTISSLQPEDFATYFCQQGDTLPWTFGQGTKLEIKRTVAAPSVFIFPPSDEQLKSGTASVVCLLNNFYPREAKVQWKVDNALQSGNSQESVTEQDSKDSTYSLSSTLTLSKADYEKHKVYACEVTHQGLSSPVTKSFNRGEC
notes: also called 20E6_H0.2aL1_IgG1; humanized 20E6
As usually defined, the Kd is the free concentration of one partner at which half of the binding sites on the other are occupied at equilibrium, for simple one-to-one binding. In general, koff refers to the rate constant with which the complex falls apart. A word on the kon: it is the rate constant with which the complex forms. As for B2, the Kd in assay [3] is 15.8 nM; in assay [4] it was 16.5 nM; in assay [5] it was 14.2 nM; in assay [6] it was 13.4 nM; in assay [7], 0.35 nM; in assay [8], 16.2 nM. In addition, the koff in assay [3] was 0.0394 s⁻¹; in assay [4], 0.0355 s⁻¹; in assay [5] it was 0.0343 s⁻¹; in assay [6] it was 0.0441 s⁻¹; in assay [7], 0.000409 s⁻¹; in assay [8] it was 0.0406 s⁻¹. The kon in assay [3] stood at 2.49e+06 M⁻¹ s⁻¹; in assay [4], 2.15e+06 M⁻¹ s⁻¹; in assay [5], 2.42e+06 M⁻¹ s⁻¹; in assay [6], 3.3e+06 M⁻¹ s⁻¹; in assay [7], 1.18e+06 M⁻¹ s⁻¹; in assay [8] it was 2.51e+06 M⁻¹ s⁻¹. In addition, the “IC50 of inhibition of TGFβ1 activation” value in assay [1] was found to be 1.3 µg/mL.

These data come from patent US20220017612A1 (TILOS THERAPEUTICS, published 2022).
